Reference: article PMC3656113

What was measured:
[1] = target: platelet activating factor receptor (PAFr) of 16HBE14 human bronchial epithelial cells (human (endogenous in 16HBE14)) (UniProt P25105)
[2] = target: recombinant human PAFr coupled to the G-protein Giα2β1γ2 (UniProt P25105); assay: ELISA
[3] = target: recombinant human PAFr coupled to the G-protein Giα3β1γ2 (UniProt P25105); assay: ELISA

pili of N. meningitidis strain 8013SBpptA8G (ChoP+) (natural protein)
> 2 fold: adherence of 8013SBpptA8G bacteria to Chem-1-PAFr cells, fold increase against 8013SB WT bacteria (fluorescence, 30 min) [1] | fold increase against pili of 8013SB WT [2] | fold increase against pili of 8013SB WT [3]
